Data on 1 molecule can be found in patent publication EP2060581A1 (Chemotherapeutisches Forschungsinstitut Georg-Speyer-Haus, dated 2009).

This test deals with T1, ErbB2 receptor (UniProt P04626 23-1255).
T1 construct: Whole endogenous receptor from cell extracts, immunoprecipitated with an ErbB2 antibody
In words: co-immunoprecipitation from SK-BR3 membrane extracts with an ErbB2 antibody, Western blot with Flag antibody. (A western blot detects proteins with antibodies after separation by electrophoresis.)

B1: mt bTrx-All-7 (designed binder)
chain: MSDKIIHLTDDSFDTDVLKADGAILVDFWAEWSGPPLNFYRHGFLPNAVMASMLEVGPWFELLGPCGLAGHPLSSLRIGPSKMIAPILDEIADEYQGKLTVAKLNIDQNPGTAPKYGIRGIPTLLLFKNGEVAATKVGALSKGQLKEFLDANLA
notes: Purified recombinant protein; Largely monomeric; also called All-7 aptamer in mutated bTrx (mt); All-7 in the mutated scaffold; not shown: Flag-tag, one or two His-tags and a 9R protein transduction domain
Regarding B1, the “fold increase in binding against wt bTrx-All-7” value stood at 2.4 fold.
